According to patent publication US20070286806A1, “Methods and Compositions for Modulating a Steroid Receptor” (Mount Sinai Hospital, priority 2004, published 2007):

Legend:
PRA and PRB protein = test: PR protein level by western blot of whole cell lysate after co-transfection in SHM cells; type: cell-based
Experimental: FIG. 5. […] (A) SHM cells were transient transfected (eighteen hours) with PRA or PRB expression vector with or without increasing doses (0.2, 0.5, 1.0 and 2.0 μg) of His-PSF vector as indicated. Whole cell lysate was analyzed by western blot with PR or His tag antibody. NS=non-specific binding. (B) SHM cells were transient transfected (eighteen hours) with PRA or PRB expression vector together with 2.0 μg His tagged PSF1-707 or truncated PSF1-662. Culture media was added with or without 60 nM MG132 (Z-Leu-Leu-Leu-a1) as indicated for another 6 hours. Whole cell lysate was analyzed by western blot with PR or His tag antibody. Gβ protein was also detected as the cell lysate loading control.
For immunoprecipitation of the endogenous PR and PSF, T47D cells cultured in 150 mm dishes were lysed in 800 μl NETN buffer containing 150 mM NaCl plus protease inhibitor cocktail. Cell lysate were then incubated with 5 μg of PR or PSF, or control mouse IgG at 4° C. overnight, followed by the addition of 30 μl of protein A/G PLUS-agarose beads (Santa Cruz) for another two hours at 4° C. Resins were washed with NETN containing 250 mM NaCl and eluted with 1×Laemmli buffer. The eluted proteins along with the whole cell extract were western blotted by PR or PSF antibody. • GST pulldown assay: GST pulldown assay was performed as previously described (20). GST and its fusion proteins were first immobilized to glutathione-Sepharose 4B affinity matrix. The matrix was then incubated at 4° C. overnight with rabbit reticulocyte lysate (Promega) containing PR or His-PSF transcribed and translated in presence of ^35S methionine. The matrix was washed three times with cold NETN buffer before adding 1 ×Laemmli buffer to elute associated proteins. The eluted proteins were separated on 10% SDS-PAGE gel. Gels were treated with Enhancer (NEN, Boston, US) dried and analyzed by autoradiography. • Cell culture and transient transfection: SHM cells and 293T cells were maintained in DMEM plus 5% FCS (Sigma) as described before (22). For experiments involving steroid exposure, the medium was substituted with phenol red free DMEM containing 5% charcoal-treated fetal bovine serum (Hyclone, Utah, USA). Transfection was performed according to manufacturers protocol (Fementas). Cells were seeded at a density to achieve 60-80% confluency the following day. The DNA and transfection reagent were mixed and added to the medium. Cell lysates were collected at least 30 hours after transfection. For luciferase assay, cells were collected in 200 μl of lysis buffer (Promega) of which 10μl was used for the luciferase and β-Gal activity assays respectively. Luciferase activity was determined by using the luciferin reagent (Promega) according to manufacture's protocol. […]

glucocorticoid receptor = molecular target: T1, glucocorticoid receptor (Mesocricetus auratus, UniProt A0A1U8BQ22); test: Glucocorticoid receptor transactivation in SHM cells, MMTV-Luc reporter; type: cell-based; details: 1 nM Dex
T1 construct: endogenous in cells; host or cells: SHM (Syrian hamster myocyte) cells
T1 sequence (A0A1U8BQ22 1-774): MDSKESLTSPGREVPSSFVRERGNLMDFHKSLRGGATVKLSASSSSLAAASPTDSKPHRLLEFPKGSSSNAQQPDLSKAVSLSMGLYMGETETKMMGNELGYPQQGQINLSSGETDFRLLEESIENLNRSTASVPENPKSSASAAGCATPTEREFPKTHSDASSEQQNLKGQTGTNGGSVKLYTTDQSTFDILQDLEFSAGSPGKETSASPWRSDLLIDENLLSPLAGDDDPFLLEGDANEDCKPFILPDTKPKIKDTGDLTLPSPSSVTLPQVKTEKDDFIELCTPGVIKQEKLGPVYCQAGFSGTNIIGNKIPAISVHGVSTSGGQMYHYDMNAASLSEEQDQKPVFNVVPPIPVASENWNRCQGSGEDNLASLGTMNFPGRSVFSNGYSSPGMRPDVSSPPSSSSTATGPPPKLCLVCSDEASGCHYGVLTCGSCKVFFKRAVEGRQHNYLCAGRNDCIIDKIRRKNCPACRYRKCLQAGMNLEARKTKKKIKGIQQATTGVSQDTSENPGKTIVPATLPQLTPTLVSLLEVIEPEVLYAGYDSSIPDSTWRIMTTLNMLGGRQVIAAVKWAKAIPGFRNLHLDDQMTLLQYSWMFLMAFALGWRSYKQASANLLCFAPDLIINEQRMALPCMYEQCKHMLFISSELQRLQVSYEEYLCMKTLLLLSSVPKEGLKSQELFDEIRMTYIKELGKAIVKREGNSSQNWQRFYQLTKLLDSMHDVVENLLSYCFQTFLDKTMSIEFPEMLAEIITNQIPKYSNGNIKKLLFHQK
Experimental: Hamster smooth muscle cells (SHM) were transiently transfected with PSF-A expression vector together with a MMTV-Luc reporter vector. Cells were treated with either vehicle or 1 nM Dex for at least 24 hours. Luciferase activities were measured and normalized by β-galactosidase acitvity. Data shown in FIG. 13 are the mean of three separate experiments performed in triplicate ±S.E. Note: the empty vector pcDNA3 was added to the DNA mixture to ensure that the amounts of CMV promoter in all the transfection assays are equal.

B1: polypyrimidine tract binding protein-associated splicing factor (protein)
chain: MSRDRFRSRGGGGGGFHRRGGGGGRGGLHDFRSPPPGMGLNQNRGPMGPGPGQSGPKPPIPPPPPHQQQQQPPPQQPPPQQPPPHQPPPHPQPHQQQQPPPPPQDSSKPVVAQGPGPAPGVGSAPPASSSAPPATPPTSGAPPGSGPGPTPTPPPAVTSAPPGAPPPTPPSSGVPTTPPQAGGPPPPPAAVPGPGPGPKQGPGPGGPKGGKMPGGPKPGGGPGLSTPGGHPKPPHRGGGEPRGGRQHHPPYHQQHHQGPPPGGPGGRSEEKISDSEGFKANLSLLRRPGEKTYTQRCRLFVGNLPADITEDEFKRLFAKYGEPGEVFINKGKGFGFIKLESRALAEIAKAELDDTPMRGRQLRVRFATHAAALSVRNLSPYVSNELLEEAFSQFGPIERAVVIVDDRGRSTGKGIVEFASKPAARKAFERCSEGVFLLTTTPRPVIVEPLEQLDDEDGLPEKLAQKNPMYQKERETPPRFAQHGTFEYEYSQRWKSLDEMEKQQREQVEKNMKDAKDKLESEMEDAYHEHQANLLRQDLMRRQEELRRMEELHNQEMQKRKEMQLRQEEERRRREEEMMIRQREMEEQMRRQREESYSRMGYMDPRERDMRMGGGGAMNMGDPYGSGGQKFPPLGGGGGIGYEANPGVPPATMSGSMMGSDMRTERFGQGGAGPVGGQGPRGMGPGTPAGYGRGREEYEGPNKKPRF
notes: expressed from transfected His-PSF vector or in vitro translated
- PR proteins after co-transfection with PRB/PRA (PRA and PRB protein; after 24 hours): total loss of PR proteins
- level of PRA and PRB protein (PRA and PRB protein; increasing dose of PSF expression vector, constant dose of PR vector): decrease
- glucocorticoid receptor activation of the MMTV promoter (glucocorticoid receptor): blocks its activation of the MMTV promoter
